# Test results published in publication PMC5443798, “Functional characterization of the meiosis-specific DNA double-strand break inducing factor SPO-11 from C. elegans”.
# Numbering of substitutions follows the chain as printed.
# T1: SPO-11 (Caenorhabditis elegans, UniProt Q22236 1-425)
# T1 sequence: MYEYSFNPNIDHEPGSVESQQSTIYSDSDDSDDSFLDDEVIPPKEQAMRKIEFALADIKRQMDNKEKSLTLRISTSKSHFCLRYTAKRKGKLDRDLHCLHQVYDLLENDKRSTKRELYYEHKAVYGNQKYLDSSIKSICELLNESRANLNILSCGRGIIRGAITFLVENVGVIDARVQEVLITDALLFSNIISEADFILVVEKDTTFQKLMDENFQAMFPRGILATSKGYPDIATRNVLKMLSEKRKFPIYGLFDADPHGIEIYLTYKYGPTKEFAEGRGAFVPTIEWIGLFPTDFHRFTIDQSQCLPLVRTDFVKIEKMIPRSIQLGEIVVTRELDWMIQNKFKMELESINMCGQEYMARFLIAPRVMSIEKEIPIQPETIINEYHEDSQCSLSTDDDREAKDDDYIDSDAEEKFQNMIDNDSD
# T2: SPO-11 G290D (Caenorhabditis elegans, UniProt Q22236 1-425, G290D)
# T2 sequence: T1 sequence with G290D
# T3: SPO-11 Y119F (Caenorhabditis elegans, UniProt Q22236 1-425, Y119F)
# T3 sequence: T1 sequence with Y119F
# T4: SPO-11 Y118F/Y119F (Caenorhabditis elegans, UniProt Q22236 1-425, Y118F;Y119F)
# T4 sequence: T1 sequence with Y118F, Y119F
# T5: SPO-11 E202A/D255A (Caenorhabditis elegans, UniProt Q22236 1-425, E202A;D255A)
# T5 sequence: T1 sequence with E202A, D255A
# T6: SPO-11 E202A (Caenorhabditis elegans, UniProt Q22236 1-425, E202A)
# T6 sequence: T1 sequence with E202A
# B1: 100 bp dsDNA, 5'-biotin (dsDNA)
# DNA 1: AATATGATAGATAATGATAGTGATGAGGGACGTGGATCTCTTCTTACCTGCGGAGACGTCGAGGAGAACCCAGGACCAGGGGTACCTATGGCCTCCTCCG
# DNA 2: CGGAGGAGGCCATAGGTACCCCTGGTCCTGGGTTCTCCTCGACGTCTCCGCAGGTAAGAAGAGATCCACGTCCCTCATCACTATCATTATCTATCATATT
# modifications: 5'-biotin (strand not stated)
# B2: 100 bp dsDNA (dsDNA)
# DNA 1: B1 DNA 1
# DNA 2: B1 DNA 2
# B3: 80 bp dsDNA (dsDNA)
# DNA 1: TTATGTTCATTTTTTATATCCTTTACTTTATTTTCTCTGTTTATTCATTTACTTATTTTGTATTATCCTTATCTTATTTA
# DNA 2: TAAATAAGATAAGGATAATACAAAATAAGTAAATGAATAAACAGAGAAAATAAAGTAAAGGATATAAAAAATGAACATAA
# B4: 80 bp dsDNA, Cy5 (dsDNA)
# DNA 1: B3 DNA 1
# DNA 2: B3 DNA 2
# modifications: 3'-Cy5 on strand 1
# Assays:
# [1] = target: T1, SPO-11; assay: SPR; 20 C, steady-state affinity, no Mg2+; EMSA: 42.5 mM Tris-HCl pH 7.5, 115 mM KCl, 1 mM DTT, 0.1 mg/ml BSA, 3% glycerol, 0.15 mM EDTA, 20 C, 30 min, 300 nM DNA (10 nM plasmid), agarose gel; SPR: same; conditions: protein: recombinant; tags: none (His6-SUMO removed by Ulp1); label: 5'-biotin; blunt
# [2] = target: T2, SPO-11 G290D; assay: EMSA; 20 C; EMSA: 42.5 mM Tris-HCl pH 7.5, 115 mM KCl, 1 mM DTT, 0.1 mg/ml BSA, 3% glycerol, 0.15 mM EDTA, 20 C, 30 min, 300 nM DNA (10 nM plasmid), agarose gel; SPR: same; conditions: protein: recombinant; tags: none (His6-SUMO removed by Ulp1); blunt
# [3] = target: T1, SPO-11; assay: EMSA; 20 C, no Mg2+; EMSA: 42.5 mM Tris-HCl pH 7.5, 115 mM KCl, 1 mM DTT, 0.1 mg/ml BSA, 3% glycerol, 0.15 mM EDTA, 20 C, 30 min, 300 nM DNA (10 nM plasmid), agarose gel; SPR: same; conditions: protein: recombinant; tags: none (His6-SUMO removed by Ulp1); blunt
# [4] = target: T3, SPO-11 Y119F; assay: EMSA; as proficient as WT; EMSA: 42.5 mM Tris-HCl pH 7.5, 115 mM KCl, 1 mM DTT, 0.1 mg/ml BSA, 3% glycerol, 0.15 mM EDTA, 20 C, 30 min, 300 nM DNA (10 nM plasmid), agarose gel; SPR: same; conditions: protein: recombinant; tags: none (His6-SUMO removed by Ulp1); blunt
# [5] = target: T4, SPO-11 Y118F/Y119F; assay: as above; conditions: protein: recombinant; tags: none (His6-SUMO removed by Ulp1); blunt
# [6] = target: T5, SPO-11 E202A/D255A; assay: EMSA; with Mg2+; as proficient as WT; EMSA: 42.5 mM Tris-HCl pH 7.5, 115 mM KCl, 1 mM DTT, 0.1 mg/ml BSA, 3% glycerol, 0.15 mM EDTA, 20 C, 30 min, 300 nM DNA (10 nM plasmid), agarose gel; SPR: same; conditions: protein: recombinant; tags: none (His6-SUMO removed by Ulp1); blunt
# [7] = target: T6, SPO-11 E202A; assay: as above; conditions: protein: recombinant; tags: none (His6-SUMO removed by Ulp1); blunt
# [8] = target: T1, SPO-11; assay: EMSA; saturated at 4.8 uM SPO-11; EMSA: 42.5 mM Tris-HCl pH 7.5, 115 mM KCl, 1 mM DTT, 0.1 mg/ml BSA, 3% glycerol, 0.15 mM EDTA, 20 C, 30 min, 300 nM DNA (10 nM plasmid), agarose gel; SPR: same; conditions: protein: recombinant; tags: none (His6-SUMO removed by Ulp1); blunt
# [9] = target: T1, SPO-11; assay: EMSA; 2.4 uM SPO-11, 300 nM DNA; EMSA: 42.5 mM Tris-HCl pH 7.5, 115 mM KCl, 1 mM DTT, 0.1 mg/ml BSA, 3% glycerol, 0.15 mM EDTA, 20 C, 30 min, 300 nM DNA (10 nM plasmid), agarose gel; SPR: same; conditions: protein: recombinant; tags: none (His6-SUMO removed by Ulp1); label: 3'-Cy5; blunt
binder,measurement,setting,value
B1,Kd,[1],~0.47 µM
B2,binding result,[2],no binding
same,binding result,[3],binds
same,binding result,[4],binds
same,binding result,[5],binds
same,binding result,[6],binds
same,binding result,[7],binds
B3,binding result,[8],binds
B4,binding result,[9],binds
